This series addresses CBF1 (RBPJK), purified from HeLa (Homo sapiens) (UniProt Q06330). The series can be described thus: competition.

CBF1 (RBPJK), purified from HeLa (Homo sapiens), sequence (Q06330 other isoform, or with tags, fused parts or gaps): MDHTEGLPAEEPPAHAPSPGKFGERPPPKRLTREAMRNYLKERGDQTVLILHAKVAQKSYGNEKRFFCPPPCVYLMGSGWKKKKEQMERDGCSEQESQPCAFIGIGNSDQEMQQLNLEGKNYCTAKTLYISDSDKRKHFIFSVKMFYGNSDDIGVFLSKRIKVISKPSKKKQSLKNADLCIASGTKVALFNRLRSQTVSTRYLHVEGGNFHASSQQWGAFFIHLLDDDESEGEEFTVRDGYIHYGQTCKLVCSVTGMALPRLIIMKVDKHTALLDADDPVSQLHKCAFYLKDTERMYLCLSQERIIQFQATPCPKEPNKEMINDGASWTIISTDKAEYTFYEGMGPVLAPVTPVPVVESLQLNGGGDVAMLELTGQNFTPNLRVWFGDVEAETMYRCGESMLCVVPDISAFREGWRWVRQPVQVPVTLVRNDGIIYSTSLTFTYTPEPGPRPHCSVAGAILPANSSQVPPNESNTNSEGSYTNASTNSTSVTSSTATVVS

For the sequence “GGAAACACGCCGTGGGAAAAAATTTGGC (double strand) [Cp (EBV C-promoter EBNA2 responsive element)]”, the binding signal (% reduction at 10 pmol competitor) (EMSA competition against Cp probe, 51% at 0.1, 90% at 1.0 pmol) worked out at 98.
Sequence “GATGCCATTGGGGATTTCCTCTTTACTG (double strand) [ELAM kB-3]” displayed a binding signal (% reduction at 10 pmol competitor) (0% at 0.1 and 1.0 pmol) of 14.
In turn, “TATATGCCCGGGAAAGTTTTTGTATTCC (double strand) [ELAMp kB-2]” had a binding signal (% reduction at 10 pmol competitor) (2% at 0.1, 27% at 1.0 pmol) of 51.
“GGAAACACGCCGTGGCTAAAAATTTGGG (double strand) [Cp-Mut]” had a binding signal (% reduction at 10 pmol competitor) (0% at 0.1 and 1.0 pmol, approx 250-fold weaker than Cp) of 19.
In turn, “CAAGAGACAGAGTTTCTAAGCTTATTGTAATTTTAAGCATCG (double strand) [Unrelated]” showed a binding signal (% reduction at 10 pmol competitor) (0% at all amounts) of 0.
Where the note is “0% at 0.1, 8% at 1.0 pmol”, “AAGCATCGTGGATATTCCCGGCACAGCT (double strand) [ELAMp kB-1]” registered a binding signal (% reduction at 10 pmol competitor) of 44.
As to “TCCTTCAGCCCTGTGGGAACTTGCTGCT (double strand) [CD23p]”, the binding signal (% reduction at 10 pmol competitor) (22% at 0.1, 70% at 1.0 pmol, approx 2.5-fold weaker than Cp) is 91.
The sequence “GGACTACCACTGTGGGATCCTCTGGAGG (double strand) [Heptamer+BamHI]” displayed a binding signal (% reduction at 10 pmol competitor) (0% at 0.1, 31% at 1.0 pmol, approx 16-fold weaker than Cp) of 75.
For the setting “0% at 0.1 and 1.0 pmol, additional 40-fold reduction versus Heptamer+BamHI”, “GGACTACCACTGTGCCTTCCTCTGGAGG (double strand) [Heptamer-BamHI]” yielded a binding signal (% reduction at 10 pmol competitor) of 8.

Source of the values: patent publication US5679525.
